Reference: PMC5342261, “Boosting of HIV envelope CD4 binding site antibodies with long variable heavy third complementarity determining region in the randomized double blind RV305 HIV-1 vaccine trial” (PLoS Pathogens, 2017)

B1: DH576 Unmutated Common Ancestor (UCA) (antibody, V domains shown)
VH: QVQLVESGGGVVQPGRSLRLSCAASGFTFSSYGMHWVRQAPGKGLEWVAVISYDGSNKYYADSVKGRFTISRDNSKNTLYLQMNSLRAEDTAVYYCARDRARSSGYFGGIYYYYYGMDVWGQGTTVTVSS
VL: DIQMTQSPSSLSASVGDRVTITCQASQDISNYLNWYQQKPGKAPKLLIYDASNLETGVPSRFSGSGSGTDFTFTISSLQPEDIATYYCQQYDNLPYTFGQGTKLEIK
notes: also called DH576 UCA; UCA of DH576; source: recombinantly expressed
B2: VRC01 (antibody, V domains shown)
VH: QVQLVQSGGQMKKPGESMRISCRASGYEFIDCTLNWIRLAPGKRPEWMGWLKPRGGAVNYARPLQGRVTMTRDVYSDTAFLELRSLTVDDTAVYFCTRGKNCDYNWDFEHWGRGTPVIVSS
VL: EIVLTQSPGTLSLSPGETAIISCRTSQYGSLAWYQQRPGQAPRLVIYSGSTRAAGIPDRFSGSRWGPDYNLTISNLESGDFGVYYCQQYEFFGQGTKVQVD
notes: also called CD4 bs bnAb VRC01

Experiments:
AE.A244gp120 [1] = biological target: AE.A244gp120 (HIV-1); assay: SPR; details: both partners purified
AE.A244gp120 [2] = biological target: AE.A244gp120 (HIV-1); assay: ELISA; blocking ELISA; AE.A244gp120 on the plate; mAbs diluted 3-fold from 100 ug/mL added for 1 h, wash, biotinylated VRC01 or CH31 for 1 h, streptavidin-HRP; details: both partners purified

Binder | binding result (AE.A244gp120 [1]) | binding result (AE.A244gp120 [2])
B1 | binds | 
B2 |  | binds
